Measured values: the supplement of paper PMC9732359
± gives the uncertainty stated by the source.

Assay: protein stability index of a GFP-peptide fusion (yeast GPS) (PSI 1-4); higher = more stable; sorted into four equal gates, so the index is relative within each strain
In short: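 Tiled 17-residue yeast protein peptides were fused downstream of GFP in a plasmid that also expresses Cherry, and the pooled library was carried in yeast. Mid-log cultures in leucine-free medium were sorted into four equal gates by GFP/Cherry fluorescence ratio, and plasmids from each gate were PCR-amplified and Illumina-sequenced, with reads assigned to strains by barcodes. The protein stability index for each peptide was each gate's read frequency times its gate number, summed.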

Sequence	protein stability index (pdr5∆)	protein stability index (ubr1∆)	protein stability index (doa10∆)	protein stability index (san1∆)
YGRQELADDLITKMLAS [RPN2]	2.92 ± 0.29	3 ± 0.079		
HRLTLEDPVTVEYLTRY [PRE6]	3.64 ± 0.24	2.68 ± 0.22	3.33 ± 0.19	3.01 ± 0.19
PLPAVFSAPIRPDIVHT [RPL4A]	2.35 ± 0.04	2.13 ± 0.041	1.96 ± 0.04	2.08 ± 0.06
KLKGLMKLNILDERFAS [IRR1]	2.75 ± 0.083	2.35 ± 0.064	2.29 ± 0.13	2.4 ± 0.16
NEKVAVMRNTYNTRKNA [GAL11]	3.14 ± 0.06	2.37 ± 0.09	2.76 ± 0.14	2.18 ± 0.072
CCTKFFTMMTSEPLTLK [PCI8]	2.15 ± 0.057	1.64 ± 0.053	2.03 ± 0.07	1.98 ± 0.12
KRIKPNTEITQKSSKEN [ECM29]	2.9 ± 0.074	3.14 ± 0.056	2.81 ± 0.081	2.98 ± 0.067
NAVISHANAAAVYFADT [SIN4]	2.29 ± 0.047	2.3 ± 0.034	2.03 ± 0.049	2.06 ± 0.051
AGQIPTGWNAKTYGISD [FAS2]	1.36 ± 0.12	1.23 ± 0.09	1.68 ± 0.14	1.66 ± 0.26
LLEKYNTNELKEVSSFL [MTR3]	2.76 ± 0.054	3.1 ± 0.053	3.05 ± 0.054	3.23 ± 0.046
LRSTEYSKSFEQFKMVS [POP1]	2.63 ± 0.12	2.52 ± 0.11	2.21 ± 0.089	2.49 ± 0.094
ERVPKTQLDKLRPRKDS [SMB1]	3.07 ± 0.062	3.17 ± 0.045	3.1 ± 0.051	3.09 ± 0.032
RKYSFNYSSLPSPYKTT [YAR002W/NUP60]	2.8 ± 0.05	2.71 ± 0.045	2.56 ± 0.054	2.71 ± 0.058
KKEATKPAFSFGINTNT [YLR335W/NUP2]	3.02 ± 0.086	3.35 ± 0.056	2.99 ± 0.062	3.26 ± 0.038
QSSAIGALQESVEAYLV [HHT1]	2.81 ± 0.087	2.15 ± 0.079	2.04 ± 0.077	2.39 ± 0.11
IVQELLDKNLIKLVKQN [RPC34]	1.99 ± 0.058	2.57 ± 0.052	1.97 ± 0.057	2.62 ± 0.068
LETLEHNGAPHHAIEEA [RPO21]	3.01 ± 0.1	2.95 ± 0.19	3.34 ± 0.12	2.94 ± 0.09
LLTEELAKSGSTEETTA [TAF14]	3.05 ± 0.091	2.74 ± 0.087	3.05 ± 0.15	2.82 ± 0.1
VDIKGEDLHEKNDSAEV [NUT1]	3.37 ± 0.2	3.55 ± 0.12	3.54 ± 0.12	2.93 ± 0.19
VYNNSKDEYLAQLDGRI [NSL1]	3.26 ± 0.049	3.36 ± 0.045	3.33 ± 0.073	3.17 ± 0.049
FNLLILSLNKRIYDREP [YCG1]	2.41 ± 0.091	2.33 ± 0.045	2.75 ± 0.11	2.22 ± 0.13
NERLEINQEKPVKLDEN [SIR4]	3.05 ± 0.12	3.3 ± 0.12	3.19 ± 0.17	3.44 ± 0.086
EPTYRLVRYGLAEKVEK [RPS24A]	3.42 ± 0.2	3.12 ± 0.19	3.48 ± 0.19	
KMVAKGLNDLVEQYKFR [BRR2]	3.17 ± 0.12	3.14 ± 0.096	3.35 ± 0.12	3.03 ± 0.11
QQLAYDLSISALLGDKI [RPN9]	2.67 ± 0.058	2.15 ± 0.064	2.4 ± 0.052	2.47 ± 0.075
SVWKPIAAIIGRLNTLV [IRR1]	1.56 ± 0.026	1.63 ± 0.024	1.68 ± 0.03	2.04 ± 0.058
LPTDGGLTSRLQRQQRK [POP4]	3.3 ± 0.17	3.38 ± 0.12	2.95 ± 0.16	3.13 ± 0.12

Sequence	protein stability index (pdr5∆)	protein stability index (ubr1∆)	protein stability index (doa10∆)	protein stability index (san1∆)
TLPGDDELDQEILNLST [RPT5]	3.27 ± 0.12	3.45 ± 0.098	3.32 ± 0.12	3.58 ± 0.072
KKKTKKELELERKERED [SWI1]	3.37 ± 0.073	3.31 ± 0.043	3.62 ± 0.12	3.51 ± 0.051
QFEVSDDEKNDKQARKQ [SNF2]	3.4 ± 0.12	3.29 ± 0.077	3.38 ± 0.083	3.06 ± 0.069
KGLKENDVAVEKTGKSA [BRR2]			3.03 ± 0.15	2.73 ± 0.21
IPSGNVWNYTFMGTAFN [PRP8]	2.47 ± 0.16	2.93 ± 0.068	2.76 ± 0.11	2.74 ± 0.095
LKERAKNISSQLDSKLM [YGR119C/NUP57]	1.46 ± 0.22	1.28 ± 0.13	1.2 ± 0.2	1.56 ± 0.26
LIKKPLTVFYAIKKFKT [SSN3]	1.56 ± 0.048	1.42 ± 0.075	1.51 ± 0.11	1.77 ± 0.091
SEAEQIDTSKNLENMSI [YCG1]	3.28 ± 0.068	2.99 ± 0.069	3.3 ± 0.073	3.17 ± 0.068
QQTAKKLIPKLYRYRFD [ECM29]	2.35 ± 0.1	1.21 ± 0.087	2.24 ± 0.13	2.24 ± 0.14
GIVLEKLGIESKQPNSA [RPS23A]	2.11 ± 0.072	2.38 ± 0.1	2.05 ± 0.071	1.92 ± 0.11
SSVKCFGPIKVELPTKE [FAS1]	1.98 ± 0.05	1.97 ± 0.057	2.5 ± 0.069	2.56 ± 0.057
LKIIHDTFRWVGKKSAP [RPO31]	2.43 ± 0.21	3.14 ± 0.11	2.51 ± 0.15	2.35 ± 0.2
RDYQRINKNSKIALREY [POP4]	2.29 ± 0.053	2.73 ± 0.063	2.77 ± 0.081	2.69 ± 0.076
ELLPHYPFVTNDDIEWM [YJR042W/NUP85]	2.93 ± 0.086	2.96 ± 0.073	2.54 ± 0.13	2.87 ± 0.065
VRNVKGPVRENDILVLM [RPS28A]	3.04 ± 0.1	2.98 ± 0.074	3.24 ± 0.11	3.5 ± 0.13
REAYIENFAKGEHISAI [SWP82]	3.11 ± 0.089	3.07 ± 0.067	2.98 ± 0.07	2.99 ± 0.061
LDTYLPEDLNSLYIYYL [SIR2]	2.45 ± 0.054	2.63 ± 0.063	2.8 ± 0.068	2.54 ± 0.053
IQIFRAHLWQKIHESIV [PRP8]	2.52 ± 0.09	2.47 ± 0.074	2.4 ± 0.098	2.59 ± 0.073
SFALPFEEDEKNSDVWF [RPN8]	3.23 ± 0.072	3.26 ± 0.06	3.28 ± 0.08	3.14 ± 0.051
PTSPAYSPTSPSYSPTS [RPO21]	2.86 ± 0.045	2.9 ± 0.035	2.89 ± 0.051	2.73 ± 0.037
GSVLLTLLNFVSNNVLR [ECM29]	1.31 ± 0.059	2.03 ± 0.073	1.43 ± 0.054	1.67 ± 0.1
VELIESKINELSYYVEE [SMC4]	3.42 ± 0.082	3.4 ± 0.083	3.29 ± 0.12	3.28 ± 0.1
LQLETPAEVGRAIRSEK [BRR2]	2.92 ± 0.063		2.08 ± 0.11	1.66 ± 0.11
LQKRVIEHNLRVISEYY [RPN5]	2.27 ± 0.11	1.37 ± 0.095	2.02 ± 0.12	2.77 ± 0.069
SNSANVSSPESEKNKRQ [ITC1]	3.1 ± 0.045	3.09 ± 0.033	2.93 ± 0.06	2.95 ± 0.036
EFEYDDEPDEQGNPKKR [CYT1]	3.28 ± 0.073	3.15 ± 0.07	3.21 ± 0.076	3.04 ± 0.07
MQSTSPAVKQWDLLPEP [SWI1]	1.5 ± 0.11	1.07 ± 0.14	2.73 ± 0.19	1.36 ± 0.27
